Laboratory results from patent US5955073.

Molecular target: human transferrin receptor (human) (UniProt P02786)

- inhibition of protein synthesis of K562 cells (% inhibition (P1, 0.1 µM)): 99
Substance: 454A12-RNase conjugate (monoclonal antibody 454A12 against the human transferrin receptor coupled to RNase A)
